Measurements from US20150099705A1.

Target: human Nav1.7 (sodium channel protein type 9 subunit alpha) (human) (UniProt Q15858)
Assay: cell-based or functional assay

wild type Protoxin-II (peptide)
IC50, FLIPR assay: 4 nM
